Several values for one entry are separate records, joined by “and”; a condition that tells them apart may be missing. Equal values may be shown once.
T1: His-tagged PH domain of OCRL (1-129) (UniProt Q01968 1-129)
T1 construct: OCRL (OCRL1), PH domain, residues 1-129; also called OCRL PH domain; source: E. coli, purified (protocol similar to that of TMEM55B, no ZnCl2 added)
T1 sequence (looked up): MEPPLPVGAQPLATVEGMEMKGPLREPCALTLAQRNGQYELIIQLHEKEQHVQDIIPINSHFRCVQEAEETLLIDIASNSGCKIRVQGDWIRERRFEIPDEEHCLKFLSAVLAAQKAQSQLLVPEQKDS

B1: RILPL1 391-403 peptide (peptide)
peptide: GYTEQGQEALQHL
notes: also called RL1pep; RILPL1 peptide; source: synthetic peptide (Genscript)
B2: His-WDR81 657-668 (peptide)
peptide: GSDDLEQATEALDS
notes: linker after the His6 tag; WDR81, residues 657-668; also called His-tagged WDR81 peptide; source: synthetic peptide (Genscript); not shown: His6, N-terminal, kept
B3: His-JIP4 887-897 (peptide)
peptide: GSTAEEATEATEG
notes: linker after the His6 tag; JIP4, residues 887-897; also called His-tagged JIP4 peptide; source: synthetic peptide (Genscript); not shown: His6, N-terminal, kept
B4: TMEM55B (80-166), untagged, wild type (domain or fragment)
chain: not shown
notes: N-terminal peptide left from the pET15b expression vector; TMEM55B, residues 80-166; numbers count on: UniProt Q86T03 isoform 2 (284 residues); also called WT TMEM55B region 80-166; source: E. coli BL21(DE3), purified (Ni-NTA, thrombin, second Ni-NTA, gel filtration)
B5: WDR81 657-668 (peptide)
peptide: DDLEQATEALDS
notes: WDR81, residues 657-668; source: synthetic peptide (Genscript)
B6: OCRL-PH domain (as used in ITC) (domain or fragment, UniProt Q01968 1-119, looked up)
chain: MEPPLPVGAQPLATVEGMEMKGPLREPCALTLAQRNGQYELIIQLHEKEQHVQDIIPINSHFRCVQEAEETLLIDIASNSGCKIRVQGDWIRERRFEIPDEEHCLKFLSAVLAAQKAQS
notes: OCRL, PH domain; residues 1-129 are stated for the His-tagged variant of the pull-down; Probably the construct of m14; source: E. coli, purified (protocol similar to that of TMEM55B, no ZnCl2 added)
B7: His-RILPL1 391-403 (peptide)
peptide: GSGYTEQGQEALQHL
notes: linker after the His6 tag; also called His-tagged RILPL1 peptide; source: synthetic peptide (Genscript); not shown: His6, N-terminal, kept
B8: JIP3 889-903 (peptide)
peptide: SQSTEEATEATEVPD
notes: JIP3, residues 889-903; source: synthetic peptide (Genscript)
B9: JIP4 887-897 (peptide)
peptide: TAEEATEATEG
notes: JIP4, residues 887-897; source: synthetic peptide (Genscript)

These binders were tested against B4 (assay: SEC-MALS; Superdex75 10/300 GL, 1-1.5 mg/mL, TMEM55B_(80-166) alone or with RILPL1 peptide). Details: both partners purified.

stoichiometry N | Binder
1 | B1

The binders below were run against B4 (assay: pull-down; 10μM His-tagged peptide or His-tagged OCRL PH domain as bait on Ni2+-agarose, 10μM untagged TMEM55B as prey; 20 mM Tris pH 8.0, 300 mM NaCl, 20mM imidazole, 10 mM β-mercaptoethanol; Coomassie). Details: both partners purified.

binding result | Binder
binds | B2
binds | B3

What follows are binders tested against T1, His-tagged PH domain of OCRL (1-129) in the same assay as above. Details: both partners purified.

binding result | Binder
binds | B4

What follows are binders tested against T2, TMEM55B (80-160) (UniProt Q86T03-2 80-160) (assay: ITC; peptide or OCRL PH domain injected into the cell with TMEM55B_(80-160); ITC200; Tris-HCl, 150mM NaCl, 1mM DTT, pH 7.5; single binding mode). Details: both partners purified.
T2 construct: TMEM55B, residues 80-160; numbers count on: UniProt Q86T03 isoform 2; source: E. coli, purified
T2 sequence (Q86T03 73-153): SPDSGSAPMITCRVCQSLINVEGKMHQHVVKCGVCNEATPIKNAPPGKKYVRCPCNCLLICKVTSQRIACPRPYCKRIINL

Kd | dH | stoichiometry N | Binder
20 nM and 33 nM and 12 nM | -9 kcal/mol and -9.1 kcal/mol and -8.7 kcal/mol | 0.94 and 1.1 | B5
 | -5.3 kcal/mol and -5.9 kcal/mol and -6.7 kcal/mol | 0.69 and 0.86 and 0.68 | B6
680 nM and 590 nM and 1000 nM | -11.4 kcal/mol and -12.1 kcal/mol and -13.6 kcal/mol | 0.87 and 0.95 | B7
127 nM and 126 nM and 103 nM | -8.2 kcal/mol and -9.3 kcal/mol | 1.2 and 0.99 and 1.1 | B8
2900 nM and 2200 nM and 3100 nM | -8.9 kcal/mol and -9.7 kcal/mol and -8.7 kcal/mol | 1 and 0.91 and 0.78 | B9
